Source: patent US12625138
Like-named read-outs stand apart in the source and are kept apart here.

Legend:
[1] = biological target: porcine pseudorabies virus lysate; assay: ELISA Test 1, plate coated with viral lysate, antibody diluted 1:4000, Group 1
[2] = biological target: PRRSV viral lysate (Porcine Reproductive and Respiratory Syndrome Virus); assay: as above
[3] = biological target: porcine coronavirus lysate; assay: as above
[4] = biological target: PRRSV viral lysate (Porcine Reproductive and Respiratory Syndrome Virus); assay: ELISA, plate coated with 25.00 ng PRRSV viral lysate, 1 µg antibody
[5] = biological target: PRRSV viral lysate (Porcine Reproductive and Respiratory Syndrome Virus); assay: ELISA, plate coated with 1.56 ng PRRSV viral lysate, 1 µg antibody
[6] = biological target: PRRSV viral lysate (Porcine Reproductive and Respiratory Syndrome Virus); assay: ELISA, plate coated with 6.25 ng PRRSV viral lysate, 1 µg antibody
[7] = biological target: PRRSV viral lysate (Porcine Reproductive and Respiratory Syndrome Virus); assay: ELISA, plate coated with 50.00 ng PRRSV viral lysate, 1 µg antibody
[8] = biological target: PRRSV viral lysate (Porcine Reproductive and Respiratory Syndrome Virus); assay: ELISA, plate coated with 0.78 ng PRRSV viral lysate, 1 µg antibody
[9] = biological target: PRRSV viral lysate (Porcine Reproductive and Respiratory Syndrome Virus); assay: ELISA Test 2, plate coated with viral lysate, antibody diluted 1:4000
[10] = biological target: porcine coronavirus lysate; assay: as above
[11] = biological target: PRRSV viral lysate (Porcine Reproductive and Respiratory Syndrome Virus)
[12] = biological target: PRRSV viral lysate (Porcine Reproductive and Respiratory Syndrome Virus); assay: ELISA, plate coated with 12.50 ng PRRSV viral lysate, 1 µg antibody
[13] = biological target: porcine pseudorabies virus lysate; assay: ELISA Test 1, plate coated with viral lysate, antibody diluted 1:4000, Group 2
[14] = biological target: PRRSV viral lysate (Porcine Reproductive and Respiratory Syndrome Virus); assay: as above
[15] = biological target: porcine coronavirus lysate; assay: as above
[16] = biological target: PRRSV viral lysate (Porcine Reproductive and Respiratory Syndrome Virus); assay: ELISA, plate coated with 3.13 ng PRRSV viral lysate, 1 µg antibody

B1: anti-PRRSV antibody 142 (antibody, V domains shown)
VH: EVQRVESGPGLVKPSQSLSLTCTVTGYSITNDYAWNWIRQFPGNKLEWMGYISYSGSTSYNPYLKSRISITRDTSKNQFFLQLNSVPTEDTATYYCARSTYGNYGYYYAMDCWGQGTSVTVSS
VL: DIVLTQSPASLAVSLGQRATISCRASESIEYYGTSLMQWYQQKPGQPPKLLIYAASNVESGVPARFSGSGSGTDFSLNIHPVEEDDIAMYFCQQSRKVPTFGGGTKLEIKR
OD450 [1]: 0.082 OD450
OD450 [2]: 0.385 OD450
OD450 [3]: 0.148 OD450
OD450 [4]: 1.3 OD450
OD450 [5]: 1.05 OD450
OD450 [6]: 1.16 OD450
OD450 [7]: 1.36 OD450
OD450 [8]: 0.984 OD450
OD450 [9]: 0.411 OD450
OD450 [10]: 0.136 OD450
OD450 [11]: 1.58 OD450
OD450 [12]: 1.11 OD450
OD450 [13]: 0.08 OD450
OD450 [14]: 0.344 OD450
OD450 [15]: 0.133 OD450
OD450 [16]: 0.959 OD450
